Reference: article PMC5449596

How the values were obtained:
[1] = target: T1, HIV-1 reverse transcriptase, subtype B (HIV-1 subtype B strain HXB2, UniProt P04585;P04585 588-1147;588-1027); test: filter binding
[2] = target: T1, HIV-1 reverse transcriptase, subtype B; test: filter binding; remark: listed apart in the source

| Binder | binding result [1] | Kd [2] |
| --- | --- | --- |
| Arbitrary control RNA (ssRNA) RNA: GGGAAAAGCGAAUCAUACACAAGAAAUUUGGACUUUCCGCCCUUCUUGGCCUUUAUGAGGAUCUCUCUGAUUUUUCUUGCGUCGAGUUUUCCGGGGGCAUAAGGUAUUUAAUUCCAUA | no binding | – |
| 88.1 (6/5AL) aptamer (structured_RNA) RNA: GGGAAAAGCGAAUCAUACACAAGACAUUGACCAAAAGGGUCGAUAGCGUCGUGUAGAUUGCACCCAUGACUGAGCUACUGCCAAAUCCACCCACGGGCAUAAGGUAUUUAAUUCCAUA | – | 81 nM |
